The target of the assay is eight amino acid-mutated FcγRIIIa without glycosylation (ligand of the TSKgel FcR-IIIA-NPR column) (UniProt P08637). Nature of the assay: FcγRIIIa affinity column chromatography.

Values joined by “and” are separate entries in the source; they are usually repeats but may differ in a detail not shown here. Equal values may be shown once.

Sequence of UniProt P08637 (P08637 17-208, change not shown): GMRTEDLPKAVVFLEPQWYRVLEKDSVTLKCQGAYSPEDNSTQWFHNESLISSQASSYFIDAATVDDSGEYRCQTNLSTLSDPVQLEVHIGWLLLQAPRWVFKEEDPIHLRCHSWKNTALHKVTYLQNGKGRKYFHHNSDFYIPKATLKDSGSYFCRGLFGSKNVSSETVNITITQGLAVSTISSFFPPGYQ

For the substance “Fc fragment of rituximab after papain digestion 5 (domain or fragment)”, the retention time is 11.2 min and 13.6 min and 16 min.

Regarding full-length mogamulizumab 4 (antibody), the retention time was 12.1 min and 14.8 min and 17.2 min.

With “full-length rituximab with trisaccharide 7 (antibody)”, the retention time was found to be 4.3 min.

Consider full-length rituximab 1 (antibody), for which the retention time was 10.2 min and 12.6 min and 15 min.

In the case of “full-length rituximab with full-length glycan 8 (antibody)”, the retention time was found to be 15.6 min.

“Fc fragment of rituximab with full-length glycan 10 (domain or fragment)” registered a retention time of 16.4 min.

Regarding full-length cetuximab 3 (antibody), the retention time was 10.7 min and 13.3 min and 15.1 min.

Regarding full-length trastuzumab 2 (antibody), the retention time was 9.8 min and 12.2 min and 14.7 min.

The values are drawn from publication PMC10173337.
